# B1: CPEB3 Ribozyme (parent)
# chain: UAACAGGGGGCCACAGCAGAAGCGUUCACGUCGCAGCCCCUGUCAGAUUCUGGUGAAUCUGCGAAUUCUGCUGUAUAUCUC
# Variants of: B1
# Experiment: self-cleavage, relative activity (ratio to wild type); higher = more cleavage; in vitro, sequencing
# Outline: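 Barcoded CPEB3 ribozyme mutants, produced by rounds of error-prone PCR, self-cleaved while being transcribed with T7 RNA polymerase for 5 hours at 37°C and during a subsequent 15 min DNase I step before EDTA was added. Sequencing of template-switched cDNA on Illumina gave cleaved and total reads, and DNA sequencing assigned barcodes to variants. Each variant's relative activity is its cleaved/total read fraction divided by the unmutated ribozyme's fraction, averaged across three batches. A variant needed a minimum of 5 reads.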
row,Variant,self-cleavage
1,C44U C79U,0.16
2,C44A U54C,0.36
3,C44A U54A,0.59
4,C44U U58C,0.28
5,C44U A56G,0.18
6,C44U G61C,0.2
7,C44A A75G,0.32
8,U43G U51C,0.2
9,C44A U67C,0.16
10,C44G A57G,0.45
11,C44A A64G,0.49
12,C44A A64C,0.18
13,U43G U67C,0.11
14,C44G U60C,0.38
15,U43C U78C,0.49
16,U43C U78A,0.63
17,U43C U78G,0.65
18,C44U A47G,0.35
19,U43G U48A,0.2
20,U43G U48C,0.39
21,C44G G63A,0.65
22,U43G C62U,0.26
23,U43G C62G,0.43
24,U43C G53U,0.6

row,Variant,self-cleavage
1,U43C G53A,0.87
2,U43C G53C,0.88
3,C44A U66G,0.23
4,U43C U60A,0.27
5,U43C U60C,0.26
6,U43C U60G,0.3
7,U43G A64G,0.46
8,U43G A64U,0.47
9,C44U A65G,0.13
10,U43C G70A,0.31
11,U43C G70U,0.18
12,U43C G70C,0.1
13,C44U,0.31
14,C44A,0.43
15,C44G,0.52
16,C44U U51C,0.1
17,C44U U51A,0.35
18,C44A A56U,0.21
19,C44U A45G,0.41
20,C44U A45C,0.46
21,C44A U80C,0.41
22,C44G U74C,1.02
23,C44G U74A,1.18
24,U43C G73U,1.2

row,Variant,self-cleavage
1,U43C G73C,1.19
2,U43C G73A,1.13
3,C44G C71U,0.15
4,U43G A45G,0.19
5,U43G A45U,0.18
6,C44G A65U,0.1
7,C44U U54A,0.36
8,C44U U54C,0.32
9,U43C G52U,1.06
10,U43C G52A,0.92
11,U43C G52C,0.77
12,U43G C81U,0.08
13,U43C G46U,0.16
14,C44A A77G,0.43
15,C44G A56G,0.44
16,U43C U51G,0.75
17,U43C U51C,0.77
18,U43C U51A,0.71
19,C44A U74C,0.63
20,C44A U76C,0.37
21,U43G U72C,0.33
22,U43G U72A,0.1
23,U43G U72G,0.17
24,U43C U66A,0.24

row,Variant,self-cleavage
1,U43C U66C,0.33
2,U43C U66G,0.45
3,U43C U80G,1.01
4,U43C U80A,0.73
5,U43C U80C,0.68
6,C44A A65G,0.2
7,U43G U60C,0.13
8,U43G U60A,0.15
9,U43G A75G,0.24
10,U43G A75U,0.35
11,C44G U78C,0.44
12,C44G C68A,0.3
13,U43C G61A,0.22
14,U43G A56U,0.36
15,U43G A56G,0.23
16,U43G U69C,0.35
17,C44A A45G,0.61
18,U43C G63A,0.47
19,U43C G63C,0.3
20,C44U C62A,0.14
21,C44U C81A,0.11
22,U43C U49A,0.26
23,U43C U49C,0.24
24,U43C U49G,0.26

row,Variant,self-cleavage
1,U43G G70A,0.34
2,C44G U76C,0.58
3,U43C U69C,0.31
4,U43C U69A,0.32
5,U43C U69G,0.43
6,C44U A77U,0.22
7,C44A U72C,0.71
8,C44U U48C,0.44
9,U43C U48A,0.29
10,U43C U48C,0.25
11,U43G A65G,0.34
12,U43C G55C,0.33
13,U43C G55U,0.52
14,C44G A45U,0.13
15,C44G A45G,0.34
16,U43C U74A,0.85
17,U43C U74G,0.86
18,U43C U74C,0.89
19,C44A C68G,0.12
20,U43C U54A,0.69
21,U43C U54G,0.49
22,U43C U54C,0.32
23,C44G A77G,0.62
24,U43C U67A,0.36

row,Variant,self-cleavage
1,U43C U67C,0.2
2,C44A U51A,0.11
3,U43G U49C,0.28
4,C44U A64U,0.18
5,C44U A64G,0.21
6,C44A U69G,0.13
7,C44A U69C,0.17
8,U43C U72G,0.59
9,U43C U72A,0.4
10,U43C U72C,0.76
11,U43G A47U,0.1
12,U43G A77G,0.22
13,C44G U49A,0.23
14,C44G U49C,0.19
15,C44A U60C,0.17
16,C44G U48C,0.1
17,U43G U74A,0.11
18,U43G U74G,0.36
19,U43G G46A,0.37
20,C44G U67C,0.18
21,U43G G53A,0.3
22,C44U G55A,0.07
23,U43G U54C,0.45
24,U43G U54A,0.26

row,Variant,self-cleavage
1,C44U U60C,0.52
2,C44U U60A,0.14
3,U43G U80C,0.18
4,U43G U58C,0.14
5,U43C U58G,0.19
6,U43C U58A,0.29
7,U43C U58C,0.23
8,U43G C44U,0.14
9,C44G U80C,0.78
10,C44G U80A,0.52
11,U43C U76A,0.89
12,U43C U76G,0.69
13,U43C U76C,0.73
14,U43G U78C,0.28
15,U43G,0.28
16,C44U A75U,0.31
17,C44A U48C,0.32
18,C44G U72C,0.54
19,C44G U72G,0.2
20,C44U G52U,0.46
21,C44A U78A,0.49
22,C44A U78C,0.38
23,U43G A57G,0.21

# Source: the RNAGym collection of RNA variant scans (doi:10.1093/nar/gkz1192)
